Tested on: WNT-responsive reporter gene
Assay: Luciferase assay with synthetic WNT-reporter (10 copies of TCF/LEF motif)
Format: cell-based
Conditions: overexpression in HEK293T cells
Description: (FIG. 56A) Schematic of the ChIP experiment. TdTomato-tagged wild type or aromatic mutant β-catenin were stably integrated in mES cells under a doxycycline-inducible promoter. Doxycycline was added to the media 24 hours prior to crosslinking. ChIP was preformed using antibodies against TdTomato. TRE=Tetracycline responsive element. (FIG. 56B) (Top) ChIP-qPCR of ectopically-expressed wild type or aromatic mutant β-catenin at Myc, Sp5, and Klf4 enhancers. Error bars indicate standard deviation of three replicates. Stars indicate p-values obtained by a t-test <0.05. (Bottom) RT-qPCR of mRNA levels after ectopic expression of wild type or aromatic mutant β-catenin of Myc, Sp5, and Klf4. Error bars indicate standard deviation of three replicates. Stars indicate p-values obtained by a t-test <0.05. (FIG. 56C) Luciferase assay using a synthetic WNT-reporter containing 10 copies of the consensus TCF/LEF motif were wild type or aromatic mutant β-catenin was overexpressed in HEK293T cells. Average of 3 biological replicates is shown. Error bars show the standard deviation. Star indicates p-value obtained by a t-test <0.05.
We independently tested the ability of the β-catenin aromatic mutant to transactivate a WNT-responsive reporter gene in a luciferase assay with wild type and mutant forms of β-catenin (FIG. 56C).

B1: wild type β-catenin: wild type β-catenin overexpressed in HEK293T cells (protein, UniProt P35222 2-781, looked up)
Catenin beta-1: ATQADLMELDMAMEPDRKAAVSHWQQQSYLDSGIHSGATTTAPSLSGKGNPEEEDVDTSQVLYEWEQGFSQSFTQEQVADIDGQYAMTRAQRVRAAMFPETLDEGMQIPSTQFDAAHPTNVQRLAEPSQMLKHAVVNLINYQDDAELATRAIPELTKLLNDEDQVVVNKAAVMVHQLSKKEASRHAIMRSPQMVSAIVRTMQNTNDVETARCTAGTLHNLSHHREGLLAIFKSGGIPALVKMLGSPVDSVLFYAITTLHNLLLHQEGAKMAVRLAGGLQKMVALLNKTNVKFLAITTDCLQILAYGNQESKLIILASGGPQALVNIMRTYTYEKLLWTTSRVLKVLSVCSSNKPAIVEAGGMQALGLHLTDPSQRLVQNCLWTLRNLSDAATKQEGMEGLLGTLVQLLGSDDINVVTCAAGILSNLTCNNYKNKMMVCQVGGIEALVRTVLRAGDREDITEPAICALRHLTSRHQEAEMAQNAVRLHYGLPVVVKLLHPPSHWPLIKATVGLIRNLALCPANHAPLREQGAIPRLVQLLVRAHQDTQRRTSMGGTQQQFVEGVRMEEIVEGCTGALHILARDVHNRIVIRGLNTIPLFVQLLYSPIENIQRVAAGVLCELAQDKEAAEAIEAEGATAPLTELLHSRNEGVATYAAAVLFRMSEDKPQDYKKRLSVELTSSLFRTEPMAWNETADLGLDIGAQGEPLGYRQDDPSYRSFHSGGYGQDALGMDPMMEHEMGGHHPGADYPVDGLPDLGHAQDLMDGLPPGDSNQLAWFDTDL
increase in luciferase activity: 8 fold

Source: patent publication US20220120736A1, “METHODS AND ASSAYS FOR MODULATING GENE TRANSCRIPTION BY MODULATING CONDENSATES” (Whitehead Institute for Biomedical Research, priority 2018, published 2022)
